B1: TPR t1 (parent)
chain: GACCAAUCUGCCCUCAGAGCUCGAGAACAUCUUCGGAUGCAGAGGAGGCAGGCUUCGGUGGCGCGAUAGCGCCAACGUCCUCAACCUCCAAUGCAUCCCACCACAUGAUGAUGCCUGAAGAGCCUUGGUUUUUUG

Variants of: B1
Experiment: polymerase ribozyme fitness, log enrichment relative to wild type (log ratio); higher = more active; in vitro selection for triplet polymerase activity
Outline: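 Fitness is a logarithmic measure of how a genotype enriched relative to the wild type, with replicate averages weighted by inverse variance. The logarithm uses base 2, and enrichment came from Illumina sequencing of input and output libraries. Those libraries were PCR-built, transcribed mutants of each subunit of a heterodimeric triplet polymerase ribozyme, passed through one triplicate in vitro selection round that included frozen incubation at −7 °C, gel excision of extended constructs and streptavidin-bead capture. Genotypes were kept only if they had ≥10 input reads and ≥1 read per output.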

| Variant | polymerase ribozyme fitness (log ratio) |
| --- | --- |
| A95U G113A | -2.53 |
| C97U C124U | 0.498 |
| G107C C115A | -6.69 |
| U106A C123U | 0.563 |
| U109A U112C U130A G135U | -5.01 |
| C97G C115G | -3.69 |
| C102A A118G | -2.42 |
| C97G A121U | -2.07 |
| G93A C115G | -2.4 |
| A91U C98U | -3.3 |
| G93A A95C A121U | 0.651 |
| C102U A111U U129C | -6.46 |
| A91U U96G G120U | -1.75 |
| A105C U129A | -4.21 |
| C101A A111G | 0.362 |
| A103U G113A U116A A121U | -5.45 |
| A95U G113A G127A | -2.73 |
| C102A C124U | 0.448 |
| A103C C123G | -2.94 |
| U106C C123A | 0.522 |
| U106C C123U | 0.901 |

| Variant | polymerase ribozyme fitness (log ratio) |
| --- | --- |
| U106C C123G | 0.936 |
| C99U C124A | -1.1 |
| C101U A103U G113U | -7.03 |
| A95G U116A C124U | -0.576 |
| C94U G117C U130A | -6.35 |
| U96A U116G U130A | -3.12 |
| C98U C102A | -5.43 |
| U109A C114U A118C | -5.26 |
| A100U U126G G135U | -2.69 |
| C98A U133G | -6.12 |
| U96G C102U | -2.86 |
| U92C C123G | 0.159 |
| C94A G110A | -2.19 |
| C97U U112G | -0.123 |
| A90G U112A | 1.08 |
| A90C U92C C102A G120C U132A | -4.27 |
| A105U U106G G120C | 0.766 |
| C102U G117U | -4.91 |
| C102U G120U | -0.992 |
| U106A G117A | -1.55 |
| C94G C102A | -3.54 |

| Variant | polymerase ribozyme fitness (log ratio) |
| --- | --- |
| C97U G117C | -4.37 |
| G93U U132C | -1.31 |
| C102U C114G C124G | -2.64 |
| G93C G135C | -1.15 |
| A90G A95C | -0.759 |
| U96A C104U U132A | -0.322 |
| U106G G120C | -0.678 |
| A95G U109C | -5.61 |
| U106A C114G | -3.33 |
| A100U C115U | -2.94 |
| U92A A108U U112C G113A A121G | -6.52 |
| C94A G120C | -1.64 |
| A91U A121C C124A | 0.449 |
| U96G U106C | -1.3 |
| C102A G113C U126C | -4.92 |
| C98G G120A | -4.76 |
| G93A U132A | -1.15 |
| C97A U129A | -4.83 |
| C101A U109A A111G G120U C124U | -6.02 |
| C101G U112C | -0.331 |
| G93C U129A | -1.91 |

| Variant | polymerase ribozyme fitness (log ratio) |
| --- | --- |
| U92A A119G G127C | -2.05 |
| C97U C115U | -2.49 |
| C94A C98A | -6.59 |
| G93C A121U U133G | 1.15 |
| A90G C104U U112C A121U U130C | 2.04 |
| C104U A111U A119G | -1.53 |
| C101U C114G | -3.89 |
| C98A C114U | -6.3 |
| U106A U132A | -0.65 |
| G93C G127A | -1.89 |
| A91C C104U | -1.08 |
| C102A A111C G120C | -3.12 |
| A91U C115U | -2.04 |
| A91U C115G | -2.97 |
| C94A U112A | 1.02 |
| C101G G135C | -1.41 |
| A90U U125G | -1.11 |
| A100C G110U U112A | -5.07 |
| A90G C101G C115G | -2.74 |
| A91C C123U | -0.37 |
| A103G G113A | -4.15 |

Source: the RNAGym collection of RNA variant scans (doi:10.1073/pnas.2313332121)
